Patent US20190359687A1 (Bayer, published 2019)
Numbering of substitutions follows the chain as printed. No end group written: not given here. *: point of attachment. Biotin = O=C1N[C@H]2[C@H](CS[C@H]2CCCCC(=O)*)N1

Tests used:
[1] = biological target: T1, human glycophorin A in the red blood cell membrane (human, UniProt P02724 20-150); experiment: SPR, human RBC membranes, Fab
T1 construct: whole, on cells; used for intact RBC, isolated RBC membranes and transfected cells; the assay field tells which; also called GPA; hGPA
T1 sequence (looked up): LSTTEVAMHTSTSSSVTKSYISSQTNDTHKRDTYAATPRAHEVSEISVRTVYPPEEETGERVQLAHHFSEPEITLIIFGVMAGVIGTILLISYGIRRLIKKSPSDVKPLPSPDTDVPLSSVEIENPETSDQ
Description: Kinetic analysis of the antibody binding to human red blood cell membranes was also performed using surface plasmon resonance (SPR) using a Biacore instrument. In this assay membranes prepared from human red blood cells were attached to a L1 sensor matrix and antibodies were flowed over the RBC membranes.

GP7 peptide = biological target: T2, GP7 peptide (human); experiment: peptide ELISA, Fab
T2 peptide: Biotin-SVRTVYPP
Excerpt: (§1) These peptides were attached to the surface of a streptavidin coated plate via a biotin moiety that was present at the N-terminus of each peptide.

GP13 peptide = biological target: T3, GP13 peptide (human); experiment: peptide ELISA, Fab
T3 peptide: Biotin-PPEEETGE
Excerpt: as §1

GP10 peptide = biological target: T4, GP10 peptide (human); experiment: peptide ELISA, Fab
T4 peptide: Biotin-TVYPPEEE
Excerpt: as §1

GP12 peptide = biological target: T5, GP12 peptide (human); experiment: peptide ELISA, Fab
T5 peptide: Biotin-YPPEEETG
Excerpt: as §1

GP16 peptide = biological target: T6, GP16 peptide (human); experiment: peptide ELISA, Fab
T6 peptide: Biotin-EETGERVQ
Excerpt: as §1

GP15 peptide = biological target: T7, GP15 peptide (human); experiment: peptide ELISA, Fab
T7 peptide: Biotin-EEETGERV
Excerpt: as §1

GP14 peptide = biological target: T8, GP14 peptide (human); experiment: peptide ELISA, Fab
T8 peptide: Biotin-PEEETGER
Excerpt: as §1

GP11 peptide = biological target: T9, GP11 peptide (human); experiment: peptide ELISA, Fab
T9 peptide: Biotin-VYPPEEET
Excerpt: as §1

[2] = biological target: T10, Cynomolgus monkey glycophorin A on Cynomolgus monkey red blood cells or red blood cell membranes (Cynomolgus monkey); experiment: Fab on intact cyno RBC, unbound Fab by ELISA; 5 min after 200-fold dilution
T10 construct: whole, on cells; also called Cyno RBC; Cynomolgus monkey RBC membranes

[3] = biological target: T11, human glycophorin A on human red blood cells or red blood cell membranes (human, UniProt P02724 20-150); experiment: Fab 7 ug/ml on intact human RBC, unbound Fab by ELISA; pre-dilution
T11 construct: whole, on cells; also called hRBC; human RBC membranes
T11 sequence (looked up): T1 sequence (looked up)
Description: (§2) The binding of affinity matured Fab antibodies to intact human RBC was also measured. Human RBC were isolated from fresh anti-coagulated normal human blood by centrifugation through a ficol gradient and washing in PBS buffer. RBC diluted to 1/10th of normal hematocrit were incubated with purified Fab antibodies at a final concentration of 7 ug/ml for 1 hour at room temperature on a rotating shaker after which a sample was taken and the RBC were pelleted by centrifugation and the supernatant was collected. The remaining RBC suspension was diluted 200-fold in PBS buffer and incubated for a total of 2 hours at room temperature on a rotating shaker and samples were removed at 0, 5 min, 20 min, 1 h and 2 h and the RBC pelleted and the supernatant collected. The amount of Fab in the supernatants was then measured using an ELISA assay and the results used to calculate the percentage of the input Fab that was bound to the RBC. […] The percentage that remains bound after 200-fold dilution of the RBC suspension is an indication of the overall strength of the binding to human RBC.

[4] = biological target: T10, Cynomolgus monkey glycophorin A on …; experiment: Fab on intact cyno RBC, unbound Fab by ELISA; 60 min after 200-fold dilution
Description: (§3) The binding of affinity matured Fab antibodies to intact Cynomolgus monkey RBC was measured. Cynomolgus monkey RBC were isolated from fresh anti-coagulated blood by centrifugation through a ficol gradient and washing in PBS buffer. RBC diluted to 1/10th of normal hematocrit were incubated with the Fab at a final concentration of 7 ug/ml for 1 hour at room temperature on a rotating shaker after which a sample was taken and the RBC were pelleted by centrifugation and the supernatant was collected. The remaining RBC suspension was diluted 200-fold in PBS buffer and incubated for a total of 2 hours at room temperature on a rotating shaker and samples were removed at 0, 5 min, 20 min, 1 h and 2 h and the RBC pelleted and the supernatant collected. […] The amount of Fab in the supernatants was then measured using an ELISA assay and the results used to calculate the percentage of the input Fab that was bound to the RBC.

[5] = biological target: T11, human glycophorin A on human red blood …; experiment: Fab on intact human RBC, unbound Fab by ELISA; 20 min after 200-fold dilution
[6] = biological target: T10, Cynomolgus monkey glycophorin A on …; experiment: Fab on intact cyno RBC, unbound Fab by ELISA; 20 min after 200-fold dilution
Description: as §3

[7] = biological target: T10, Cynomolgus monkey glycophorin A on …; experiment: Fab on intact cyno RBC, unbound Fab by ELISA; 0 min after 200-fold dilution
Description: as §3

[8] = biological target: T11, human glycophorin A on human red blood …; experiment: Fab on intact human RBC, unbound Fab by ELISA; 0 min after 200-fold dilution
Description: as §2

[9] = biological target: T11, human glycophorin A on human red blood …; experiment: Fab on intact human RBC, unbound Fab by ELISA; 5 min after 200-fold dilution
[10] = biological target: T10, Cynomolgus monkey glycophorin A on …; experiment: Fab on intact cyno RBC, unbound Fab by ELISA; 120 min after 200-fold dilution
[11] = biological target: T11, human glycophorin A on human red blood …; experiment: Fab on intact human RBC, unbound Fab by ELISA; 120 min after 200-fold dilution
[12] = biological target: T12, GP8 peptide of the human GPA ectodomain (human, not fully specified (N-terminus)); experiment: ELISA, Fab 0.05 ug/ml on biotin-peptide on streptavidin plate
T12 peptide: VRTVYPPE
Excerpt: as §1

[13] = biological target: T13, GP5 peptide of the human GPA ectodomain (human, N-terminal biotin); experiment: as above
T13 construct: Residues 42 to 61 of the human GPA extracellular domain
Excerpt: as §1

[14] = biological target: T14, GP14 peptide of the human GPA ectodomain (human, not fully specified (N-terminus)); experiment: as above
T14 peptide: PEEETGER
Excerpt: as §1

[15] = biological target: T15, GP7 peptide of the human GPA ectodomain (human, not fully specified (N-terminus)); experiment: as above
T15 peptide: SVRTVYPP
Excerpt: as §1

[16] = biological target: T16, GP16 peptide of the human GPA ectodomain (human, not fully specified (N-terminus)); experiment: as above
T16 peptide: EETGERVQ
Excerpt: as §1

[17] = biological target: T17, GP10 peptide of the human GPA ectodomain (human, not fully specified (N-terminus)); experiment: as above
T17 peptide: TVYPPEEE
Excerpt: as §1

[18] = biological target: T18, GP15 peptide of the human GPA ectodomain (human, not fully specified (N-terminus)); experiment: as above
T18 peptide: EEETGERV
Excerpt: as §1

[19] = biological target: T19, GP12 peptide of the human GPA ectodomain (human, not fully specified (N-terminus)); experiment: as above
T19 peptide: YPPEEETG
Excerpt: as §1

[20] = biological target: T20, GP13 peptide of the human GPA ectodomain (human, not fully specified (N-terminus)); experiment: as above
T20 peptide: PPEEETGE
Excerpt: as §1

[21] = biological target: T21, GP11 peptide of the human GPA ectodomain (human, not fully specified (N-terminus)); experiment: as above
T21 peptide: VYPPEEET
Excerpt: as §1

[22] = biological target: T22, GP9 peptide of the human GPA ectodomain (human, not fully specified (N-terminus)); experiment: as above
T22 peptide: RTVYPPEE
Excerpt: as §1

[23] = biological target: T12, GP8 peptide of the human GPA ectodomain; experiment: ELISA, Fab 0.5 ug/ml on biotin-peptide on streptavidin plate
Excerpt: as §1

[24] = biological target: T13, GP5 peptide of the human GPA ectodomain; experiment: as above
Excerpt: as §1

[25] = biological target: T14, GP14 peptide of the human GPA ectodomain; experiment: as above
Excerpt: as §1

[26] = biological target: T15, GP7 peptide of the human GPA ectodomain; experiment: as above
Excerpt: as §1

[27] = biological target: T16, GP16 peptide of the human GPA ectodomain; experiment: as above
Excerpt: as §1

[28] = biological target: T17, GP10 peptide of the human GPA ectodomain; experiment: as above
Excerpt: as §1

[29] = biological target: T18, GP15 peptide of the human GPA ectodomain; experiment: as above
Excerpt: as §1

[30] = biological target: T19, GP12 peptide of the human GPA ectodomain; experiment: as above
Excerpt: as §1

[31] = biological target: T20, GP13 peptide of the human GPA ectodomain; experiment: as above
Excerpt: as §1

[32] = biological target: T21, GP11 peptide of the human GPA ectodomain; experiment: as above
Excerpt: as §1

[33] = biological target: T22, GP9 peptide of the human GPA ectodomain; experiment: as above
Excerpt: as §1

[34] = biological target: T11, human glycophorin A on human red blood …; experiment: Fab on intact human RBC, unbound Fab by ELISA; 60 min after 200-fold dilution
Description: as §2

[35] = biological target: T10, Cynomolgus monkey glycophorin A on …; experiment: Fab 7 ug/ml on intact cyno RBC, unbound Fab by ELISA; pre-dilution

B1: TPP-5907 Fab (Fab, V domains shown)
VH: EVQLVQSGAEVKKPGASVKVSCKASGYTFTTYTIHWVRQAPGQGLEWMGYINPGSGYTRYNPKFKGRVTMTRDKSTSTAYMELRSLRSDDTAVYYCQTGTRDYWGQGTTVTVSS
VL: DIQLTQSPSFLSASVGDRVTITCRASSSVSYIYWFQQKPGKAPKLLIYATSTLQSGVPSRFSGSGSGTEYTLTISSLQPEDFATYYCHQRNSFPYTFGQGTKLEIKR
**Q.** For B1, which “fold improvement of affinity against the parental antibody” value [1] is on record?
**A.** The value was about 200 fold.

B2: TPP-7792 Fab (Fab, V domains shown)
VH: B1 VH with T33A, G54S, Q97W
VL: DIQLTQSPSFLSASVGDRVTITCRASSSVRYIYWFQQKPGKAPKLLIYATSFRQSGVPSRFSGSGSGTEYTLTISSLQPEDFATYYCHQRNSFPYTFGQGTKLEIK
notes: as m92
**Q.** Does B2 bind (GP7 peptide)?
**A.** Result: no binding (tested: 0.5 ug/ml)

**Q.** Does B2 bind (GP13 peptide)?
**A.** Result: no binding (tested: 0.5 ug/ml)

**Q.** Does B2 bind (GP10 peptide)?
**A.** Result: no binding (tested: 0.5 ug/ml)

**Q.** Does B2 bind (GP12 peptide)?
**A.** Result: no binding (tested: 0.5 ug/ml)

**Q.** Does B2 bind (GP16 peptide)?
**A.** Result: no binding (tested: 0.5 ug/ml)

**Q.** Does B2 bind (GP15 peptide)?
**A.** Result: no binding (tested: 0.5 ug/ml)

**Q.** Does B2 bind (GP14 peptide)?
**A.** Result: no binding (tested: 0.5 ug/ml)

**Q.** Does B2 bind (GP11 peptide)?
**A.** Result: no binding (tested: 0.5 ug/ml)

B3: TPP-7792, affinity matured 6C12 Fab (Fab, V domains shown)
VH: B1 VH with T33A, G54S, Q97W
VL: B2 VL
notes: Tested as Fab with a 6xHIS tag
**Q.** What does the source list for B3?
**A.** percentage of input antibody bound [2]: 94%; percentage of input antibody bound [3]: 98%; percentage of input antibody bound [4]: 92%; percentage of input antibody bound [5]: 96%; percentage of input antibody bound [6]: 93%; percentage of input antibody bound [7]: 96%; percentage of input antibody bound [8]: 97%; percentage of input antibody bound [9]: 97%; percentage of input antibody bound [10]: 89%; percentage of input antibody bound [11]: 96%; binding signal in ELISA (relative light units) [12]: 291 RLU; binding signal in ELISA (relative light units) [13]: 3500 RLU; binding signal in ELISA (relative light units) [14]: -1 RLU; binding signal in ELISA (relative light units) [15]: 0 RLU; binding signal in ELISA (relative light units) [16]: -1 RLU; binding signal in ELISA (relative light units) [17]: 14 RLU; binding signal in ELISA (relative light units) [18]: -1 RLU; binding signal in ELISA (relative light units) [19]: -1 RLU; binding signal in ELISA (relative light units) [20]: -1 RLU; binding signal in ELISA (relative light units) [21]: 0 RLU; binding signal in ELISA (relative light units) [22]: 18 RLU; binding signal in ELISA (relative light units) [23]: 5130 RLU; binding signal in ELISA (relative light units) [24]: 7230 RLU; binding signal in ELISA (relative light units) [25]: 0 RLU; binding signal in ELISA (relative light units) [26]: 1 RLU; binding signal in ELISA (relative light units) [27]: 0 RLU; binding signal in ELISA (relative light units) [28]: 71 RLU; binding signal in ELISA (relative light units) [29]: 0 RLU; binding signal in ELISA (relative light units) [30]: 0 RLU; binding signal in ELISA (relative light units) [31]: 0 RLU; binding signal in ELISA (relative light units) [32]: 2 RLU; binding signal in ELISA (relative light units) [33]: 534 RLU; percentage of input antibody bound [34]: 97%; percentage of input antibody bound [35]: 92%

B4: TPP-7790 Fab (Fab, V domains shown)
VH: B1 VH with T33A, G54S, G66H, Q97W
VL: B2 VL with R53L
notes: as m92
**Q.** Does B4 bind (GP7 peptide)?
**A.** Result: no binding (tested: 0.5 ug/ml)

**Q.** Does B4 bind (GP13 peptide)?
**A.** Result: no binding (tested: 0.5 ug/ml)

**Q.** Does B4 bind (GP10 peptide)?
**A.** Result: no binding (tested: 0.5 ug/ml)

**Q.** Does B4 bind (GP12 peptide)?
**A.** Result: no binding (tested: 0.5 ug/ml)

**Q.** Does B4 bind (GP16 peptide)?
**A.** Result: no binding (tested: 0.5 ug/ml)

**Q.** Does B4 bind (GP15 peptide)?
**A.** Result: no binding (tested: 0.5 ug/ml)

**Q.** Does B4 bind (GP14 peptide)?
**A.** Result: no binding (tested: 0.5 ug/ml)

**Q.** Does B4 bind (GP11 peptide)?
**A.** Result: no binding (tested: 0.5 ug/ml)
